Laboratory results published in patent publication US20230183322A1 (PEKING UNIVERSITY, published 2023).

B1: ABU-385 (antibody, V domains shown)
VH: EVQLVESGGGLVQPGGSLRLSCAASGFTVSSNYMSWVRQAPGKGLEWVSVIYSGGSTYYADSVKGRFTISRDNSKNTLYLQMNSLRAEDTAVYYCARELSYSSSSGVGPKYWGQGTLVTVSS
VL: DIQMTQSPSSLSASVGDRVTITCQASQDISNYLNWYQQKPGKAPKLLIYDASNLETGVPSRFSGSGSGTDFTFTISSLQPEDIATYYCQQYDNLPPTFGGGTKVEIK
B2: ABU-296 (antibody, V domains shown)
VH: EVQLLESGGGVVQPGGSLRLSCAASGFTFTTYAMNWVRQAPGRGLEWVSAISDSGGSAYYADSVKGRFTISRDNSKNTLYLQMNSLRAEDTAVYYCAKTRGRGLYDYVWGSKDYWGQGTLVTVSS
VL: not shown
B3: ABU-297 (antibody, V domains shown)
VH: EVQLLESGGGVVQPGGSLRLSCAASGFAFTTYAMNWVRQAPGRGLEWVSAISDGGGSAYYADSVKGRFTISRDNSKNTLYLQMNSLRAEDTAVYYCAKTRGRGLYDYVWGSKDYWGQGTLVTVSS
VL: not shown
B4: ABU-390 (antibody, V domains shown)
VH: EVQLVESGGGLVQPGGSLRLSCAASGFTFSSYDMHWVRQATGKGLEWVSVIGTAGDTYYPGSVKGRFTISRENAKNSLYLQMNSLRAGDTAVYYCARDRDNGSGSYLGWAFDIWGQGTMVTVSS
VL: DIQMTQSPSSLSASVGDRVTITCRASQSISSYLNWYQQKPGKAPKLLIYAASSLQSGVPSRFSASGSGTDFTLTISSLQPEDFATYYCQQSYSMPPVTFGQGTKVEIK
B5: ABU-290 (antibody, V domains shown)
VH: QVQLVQSGAEVKKPGASVKVSCKASGFTFGRHGITWVRQAPGQGLEWMGWISTYSGNTNYAQNLQGRVTMTTDTSTNTAYMELRSLFFDDTAVYYCAKAVSGWPIYFDAWGQGTLVTVSS
VL: EIVMTQSPATLSVSPGERVTLSCRASQSINRNLAWYQQKPGQAPRLLVYDASTRAPGIPTRVSGSGSGTDFTLTISSLQSEDFAVYYCQQYNNWPPITFGQGTRLEIQ
B6: ABU-291 (antibody, V domains shown)
VH: QIQLVQSGAEVKKPGASVRVSCKASGFTFGRYGITWVRQVPGQGLEWMGWISTYSGNTNYAQNLQGRVTMTTDTSTNTAYMELRSLFFDDTAMYYCAKAVSGWPIYFDAWGQGTLVTVSS
VL: EIVMTQSPATLSVSPGERVTLSCRASQSVNRNLAWYQQKPGQAPRLLVYDASTRAPGIPTRVRGSGSGTDFTLTISSLQSEDFAVYYCQQYNNWPPITFGQGTRLEIQ
B7: ABU-384 (antibody, V domains shown)
VH: EVQLVESGGGLVQPGGSLRLSCAASGFTVSSNYMSWVRQAPGKGLEWVSIIYSGGSTYYADSVKGRFTISRDNSKNTLYLQMNSLRAEDTAVYYCARDYAGRVWGQGTLVTVSS
VL: DIQMTQSPSSLSASVGDRVTITCQASQDIRSYLNWYQQKPGKAPKLLIYDASNLETGVASRFSGSGSGTDFTFTISSLQPEDIATYYCQQYDNLPQTFGQGTKLEIK
B8: ABU-348 (antibody, V domains shown)
VH: QVQLVESGGGVVQPGKSLRLSCAASGFTFSSYGMHWVRQAPGKGLEWVAVISNYGSNKYHADSVKGRITISRDNSKNTLYLQMNSLRAEDTAVYYCAKGGYYDILTGYFPFDYWGQGTLVTVSS
VL: QSALTQPRSVSGSPGQSVTISCTGTSSDVGGYNYVSWYQQYPGKAPKLMIYEVSKRPSGVPDRFSGSKSGNTASLTISGLQAEDEADYYCCSYAGSYTWVFGTGTKVTVL
B9: ABU-322 (antibody, V domains shown)
VH: EVQLVESGGGLIQPGGSLRLSCAASGVIVSRNYMNWVRQAPGKGLEWVSVIYSGGSTFYADSVKGRFTISRDNSKNTLYLQMNSLRAEDTAVYYCARELRGAFDIWGQGTMVTVSS
VL: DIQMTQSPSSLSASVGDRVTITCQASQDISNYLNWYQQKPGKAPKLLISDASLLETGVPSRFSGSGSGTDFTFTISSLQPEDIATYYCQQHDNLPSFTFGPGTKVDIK
B10: ABU-382 (antibody, V domains shown)
VH: EVQLVESGGGLIQPGGSLRLSCAASGITVSSNYMSWVRQAPGKGLEWVSVIYSGGSTFYSDSVKGRFTISRDNSKNTLYLQMNSLRAEDTAVYYCARERGGRFDYWGQGTLVTVSS
VL: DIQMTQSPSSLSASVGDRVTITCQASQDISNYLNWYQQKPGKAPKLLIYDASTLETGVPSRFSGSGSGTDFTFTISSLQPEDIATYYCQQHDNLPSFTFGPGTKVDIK
B11: ABU-190 (antibody, V domains shown)
VH: EVQLVESGGGLIQPGGSLRLSCAASGITVSSNYMSWVRQAPGKGLEWVSVIYSGGSTDYADSVKGRFTISRDKSKNTLYLQMNSLRAEDTAVYYCARDLGEAGGMDVWGQGTTVTVSS
VL: AIQLTQSPSSLSASVGDRVTITCRASQGISSYLAWYQQKPGKAPKLLIYAASTLQSGVPSRFSGSGSGTDFTLTISSLQPEDFATYYCQQLNSYPPAFGGGTKVEIK
B12: ABU-349 (antibody, V domains shown)
VH: EVQLVESGGGLIQPGGSLRLSCAASGFTVSRNYMSWVRQAPGKGLEWVSLIYSGGSTFYADSVKGRFTISRDNSKNTLYLQMNTLRSEDTAVYYCARDLVVYGMDVWGQGTTVTVSS
VL: DIQLTQSPSFLSASVGDRVTITCRASQGISSYLAWYQQKPGKAPKLLIYAASTLQVGVPSRFSGSGSGTEFTLTISSLQPEDFATYFCQQLNSYPFTFGPGTKVDIK
B13: ABU-351 (antibody, V domains shown)
VH: EVQLVESGGGLVQPGGSLRLSCAASGFTVSRNYMSWVRQAPGKGLEWVSVIYSGGTTHYADSVKGRFTISRHNSKNTLYLQMNSLRAEDTAVYYCARDLVVYGMDVWGQGTTVTVSS
VL: DIQLTQSPSFLSASVGDRVTITCRASQGISSYLAWYQQKPGKAPKLLIYAASTLQSGVPSSFSGSGSGTEFTLTISSLQPEDFATYYCQQLNSYPLTFGGGTKVEIK
B14: ABU-208 (antibody, V domains shown)
VH: QVQLVESGGGVVQPGRSLRLSCVASGFTFSNYDMHWVRQAPGKGLEWVTVISSDGNNRRYADSVKGRFTISRDNSKNMLYLQMNSLKAEDTAVYYCARDEVIAVATGEGMDVWGQGTTVTVSP
VL: EIVMTQSPAILSVSPGERATLSCRASQSVTRNLAWYQQKPGQAPRLLIYGASTRATNIPARFSGSGFGTEFTLIISSLQSEDFAVYYCQQYSNWPLYTFGQGTKLEIK
B15: ABU-308 (antibody, V domains shown)
VH: QVQLVQSGAEVKKPGSSVKVSCKASGGTFSSYAISWVRQAPGQGLEWMGGIIPIFGTANYAHKFQGRVTITADESTSTAYMELSSLRSEDTAVYYCATRRGYSGYGAAYYFDYWGQGTLVTVSS
VL: QSVLTQPPSVSGAPGQRVTISCTGSSSNIGAGYDVHWYQQLPGTAPKLLIYGNSNRPSGVPDRFSGSKSGTSASLAITGLQAEDEADYYCQSYDSSLSGSLFGGGTKLTVL
B16: ABU-344 (antibody, V domains shown)
VH: QVQLVQSGAEVKKPGSSVKVSCKASGGTFSSYTISWVRQAPGQGLEWMGRIIPILGIANYAQKFQGRVTITADKSTSTAYMELSSLRSEDTAVYYCARERGYSGSGSLYYFDYWGQGTLVTVSS
VL: QSVLTQPPSVSGAPGQRVTISCTGSNSNIGAGYDVHWYQQLPGTAPKLLIYVNTNRPSGVPDRFSGSKSGTSASLAITGLQAEDEAHYYCQSYDSSLSGSVFGGGTKLTVL
B17: ABU-383 (antibody, V domains shown)
VH: EVQLVESGGGLVQPGGSLRLSCAASGFTVSSNYMSWVRQAPGKGLEWVSLIYSGGSTYYADSVKGRFTISRDNSKNTLYLQMNSLRAEDTAVYYCARDRPAAAIRFGQGTLVTVSS
VL: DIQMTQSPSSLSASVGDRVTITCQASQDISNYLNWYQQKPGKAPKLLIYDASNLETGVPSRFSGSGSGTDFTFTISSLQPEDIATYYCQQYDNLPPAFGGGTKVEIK
B18: ABU-346 (antibody, V domains shown)
VH: EAQLLESGGGLVQPGGSLRLSCAVSGFTVSSYDMSWVRQAPGKRLEWVSFISARGSVTYYADSVRGRFTISRDNFKNTLYVEMNNLRVEDTAVYYCAKGHWSTWGQGTLVTVSS
VL: DVVLTQSPLSLPVTLGQPASISCRSSHSLVYSDGYTHLHWIQERPGQSPRRLIYSVSHRDSGVPDRFSGSGSATDFTLQISRVEAEDVGVYYCMQGSHWPWTFGQGTKVEIK
B19: ABU-257 (antibody, V domains shown)
VH: EVQLVESGGGLIQPGGSLRLSCAASGFTVSSNYMSWVRQAPGKGLEWVSVIYSGGSTYYADSVKGRFTISRDNSKNTLYLQMNSLRAEDTAVYYCARVTRAGAAGDGGAFDIWGQGTMVTVSS
VL: QSALTQPASVSGSPGQSITISCTGTSSDVGSYNLVSWYQQHPGKAPKLMIYEVSKRPSGVSNRFSGSKSGNTASLTISGLQAEDEADYYCCSYAGSSLWVFGGGTKLTVL
B20: ABU-340 (antibody, V domains shown)
VH: EVQLVESGGGLVQPGGSLRLSCAASGFTVSSNYMNWVRQAPGKGLEWVSVIYSGGSTYYADSVKGRFTLSRDNSKNTLYLQMNSLRAEDTAVYYCARGQYDILTGYQYGAFDIWGQGTMVTVSS
VL: QSALTQPASVSGSPGQSITISCTGTSSDVGTYNLVSWYQQHPGKAPKLMIYEVSKRPSGVSNRFSGSKSGNTASLTISGLQAEDEADYYCCTYAGSSTWVFGGGTKLTVL
B21: ABU-174 (antibody, V domains shown)
VH: QVQLQQWGAGLLKPSETLSLTCAVYGGSFSDYYWNWIRRPPGKGLEWIGEITHSGSTNYNPSLKSRVTISVDTSKNQFSLKLSSVTAADTAVYYCARGQGYGRVLLWFGEWGQGTLVTVSS
VL: EIVLTQSPATLSLSPGERATLSCRASQSVSTYLAWYQQKPGQAPRLLIYDASNRATGIPARFSGSGSGTDFTLTISSLEPEDFAVYYCQQRSNWITFGQGTRLEIK
B22: ABU-341 (antibody, V domains shown)
VH: QVQLQESGPGLVKPSQTLSLTCTVSAGSISSDTYYWSWIRQPAGKGLEWIGRIYTTGSTIYNPSLNSRVLISADTSNNQFSLKLTSVTASDTAVYYCAAHYYSRTDAFHIWGQGTMVTVSS
VL: DIQMTQSPSSLSASVGDRVTITCRASQSIAKFLNWYQKKPGKAPNLLISTASSFQSGVPSRFSGSGSGTDYTLTISGLQPEDFATYYCQQSYSSPYTFGQGTNLEIK

Assays:
[1] = target: biotin-labeled SARS-COV-2 RBD domain (SARS-CoV-2, UniProt P0DTC2 319-541); assay: SPR, Biacore T200, biotin-RBD on SA chip, antibody as analyte
[2] = target: S protein of the novel coronavirus SARS-CoV-2 (SARS-CoV-2, UniProt P0DTC2 14-1273); assay: cell-based or functional assay

Binder | Kd [1] [nM] | IC50 for neutralizing SARS-CoV-2 pseudovirus (Huh-7 cells, luciferase) [2] [µg/mL]
B1 | < 20 | 
B2 | < 1 | < 0.1
B3 | < 1 | < 0.1
B4 | < 10 | 
B5 |  | < 0.1
B6 |  | < 0.5
B7 | < 20 | 
B8 | < 10 | 
B9 |  | < 0.1
B10 | < 10 | < 0.1
B11 |  | < 0.1
B12 | < 1 | < 0.1
B13 | < 10 | < 0.1
B14 | < 1 | < 0.5
B15 |  | < 0.5
B16 |  | < 1
B17 | < 20 | 
B18 | < 10 | 
B19 | < 10 | < 0.5
B20 | < 10 | < 0.5
B21 |  | < 0.1
B22 | < 10 | < 0.1
